Patent US20230416329A1 (INSTITUTE OF MATERIA MEDICA CHINESE ACADEMY OF MEDICAL …, published 2023)
Each block holds one binder with its values, some of them ahead of it. Bridge positions count the residues as written; N and C are the ends. Ends that are not written are not given here.

What was measured:
[1] = biological target: T1, PCSK9 protein (UniProt Q8NBP7 31-692, limits assumed); assay: PCSK9-LDLR in vitro binding assay kit, OD450/540; peptide 10 µM; inhibition of PCSK9 binding to LDLR
T1 construct: Kit reagent; also called proprotein convertase subtilisin/kexin type 9
Description: (§1) Solvent control: replace polypeptide with 5 μL solvent.
(§2) ^aThe concentration of samples in the table was 50 μM.

[2] = biological target: T1, PCSK9 protein; assay: PCSK9-LDLR in vitro binding assay kit, OD450/540; peptide 100 µM; inhibition of PCSK9 binding to LDLR
Description: as §1, §2

[3] = biological target: porcine pancreatic elastase (porcine, UniProt P00772 27-266); assay: elastase inhibition in vitro
Description: (§3) The substrates N-succinyl-Ala-Ala-Pro-Phe-p-nitroaniline (AAPFpNA), Nα—Benzoyl-L-arginine-4-nitroaniline hydrochloride (BApNA) and N-succinyl-[…] (AAApNA) are used in competitive binding reaction to determine the inhibitory activities against α-chymotrypsin, bovine trypsin, and porcine pancreatic elastase, respectively. Experiments for α-chymotrypsin and bovine trypsin inhibition were measured in 20 mM CaCl₂, 50 mM Tris-HCl buffer (pH 7.8), and that for porcine elastase inhibition was measured in 50 mM Tris-HCl buffer (pH 8.0). The concentration of the peptide was measured using optical density (OD) at 280 nm. The Michaelis constant (Kₘ) of the enzyme hydrolysis substrate is calculated from the initial rate of substrate hydrolysis at 405 nm. The absorbance value of the substrate was measured at 405 nm after complete hydrolysis. All data were processed using nonlinear regression.
(1) Added a total 190 μL of different concentrations of peptides (ECs) against elastase and reaction buffer (20 mM CaCl₂, 50 mM Tris-HCl buffer (pH 8.0)) into the pre-cold 96 well plate, followed by preheating at 37° C. for 5 min and centrifugated at 500 rpm for 1 min and allowed to stand for 4 minutes. […] Finally, added 2 μL of 100 mM AAApNA, and mixed by centrifugation at 500 rpm for 1 min. The plate was incubated at 37° C. for 60 min, and the absorbance value at 405 nm was measured. Three repetitions were made, and only reaction buffer and substrate were added in the blank control as the minimum absorption value (Min OD_{405 nm}); Only reaction buffer, enzyme and substrate were added in the negative control as the maximum absorption value (Max OD₄₀₅ nm). [0472] (2) In the 200 μL of reaction system, the final concentrations of elastase and AAApNA were 0.5 μM and 1 mM, respectively. [0473] (3) Data statistics

[4] = biological target: T1, PCSK9 protein; assay: PCSK9-LDLR in vitro binding assay kit, OD450/540; peptide 50 µM, PCSK9 75 ng/mL; inhibition of PCSK9 binding to LDLR
[5] = biological target: T2, bovine trypsin (bovine, UniProt P00760 24-246); assay: trypsin (50 nM) BApNA hydrolysis, OD405; peptide at 0.0488 µM
Description: as §3
(§4) (1) Added a total 190 μL of reaction buffer (20 mM CaCl₂ and 50 mM Tris-HCl, pH 7.8) along with different concentrations of anti-trypsin peptides (BTs) into the pre-cooled 96-well plate, followed by preheating at 37° C., and spined down at 500 rpm for 5 min. Next added 10 μL of 1 μM trypsin, incubated at 37° C., and then spined down at 500 rpm for 10 min. Finally, added 5 μL of 50 mM BApNA, and mixed by centrifugation at 500 rpm for 1 min. […] The experiment was performed in triplicate. The blank control only contained the reaction buffer and the substrate as the minimum absorption value (Min OD_{405 nm}). The negative control only contained the reaction buffer, the enzyme and the substrate as the maximum absorption value (Max OD_{405 nm}). […] (2) In the reaction system of 205 μL, the final concentrations of trypsin and BApNA were 50 nM and 1.22 mM, respectively. [0456] (3) Data statistics

[6] = biological target: T2, bovine trypsin; assay: trypsin (50 nM) BApNA hydrolysis, OD405; peptide at 0.00098 µM
[7] = biological target: T2, bovine trypsin; assay: trypsin (50 nM) BApNA hydrolysis, OD405; peptide at 0.0098 µM
[8] = biological target: T2, bovine trypsin; assay: trypsin (50 nM) BApNA hydrolysis, OD405; peptide at 0.98 µM
Description: as §3, §4

[9] = biological target: T2, bovine trypsin; assay: trypsin (50 nM) BApNA hydrolysis, OD405; peptide at 0.0488 µM; remark: listed apart in the source
[10] = biological target: T2, bovine trypsin; assay: trypsin (50 nM) BApNA hydrolysis, OD405; peptide at 0.00098 µM; remark: listed apart in the source
[11] = biological target: T2, bovine trypsin; assay: trypsin (50 nM) BApNA hydrolysis, OD405; peptide at 0.0098 µM; remark: listed apart in the source
Description: as §3, §4

[12] = biological target: T2, bovine trypsin; assay: trypsin (50 nM) BApNA hydrolysis, OD405; peptide at 0.98 µM; remark: listed apart in the source
[13] = biological target: T2, bovine trypsin; assay: trypsin (50 nM) BApNA hydrolysis, OD405; peptide at 0.098 µM
Description: as §3, §4

[14] = biological target: T2, bovine trypsin; assay: trypsin (50 nM) BApNA hydrolysis, OD405; peptide at 97.56 µM
Description: as §3, §4

[15] = biological target: T2, bovine trypsin; assay: trypsin (50 nM) BApNA hydrolysis, OD405; peptide at 0.000098 µM
Description: as §3, §4

[16] = biological target: T2, bovine trypsin; assay: trypsin (50 nM) BApNA hydrolysis, OD405; peptide at 9.76 µM
Description: as §3, §4

[17] = biological target: T2, bovine trypsin; assay: as above; remark: listed apart in the source
[18] = biological target: T2, bovine trypsin; assay: trypsin (50 nM) BApNA hydrolysis, OD405; peptide at 0.098 µM; remark: listed apart in the source

T2 sequence (P00760 24-246): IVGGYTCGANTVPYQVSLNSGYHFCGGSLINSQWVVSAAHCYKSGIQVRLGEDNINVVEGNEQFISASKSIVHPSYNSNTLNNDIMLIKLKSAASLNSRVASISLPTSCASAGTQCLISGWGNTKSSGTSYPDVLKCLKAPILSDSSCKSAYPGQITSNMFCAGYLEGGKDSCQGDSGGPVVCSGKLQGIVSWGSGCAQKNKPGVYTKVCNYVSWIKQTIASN
porcine pancreatic elastase, sequence (P00772 27-266 limits assumed): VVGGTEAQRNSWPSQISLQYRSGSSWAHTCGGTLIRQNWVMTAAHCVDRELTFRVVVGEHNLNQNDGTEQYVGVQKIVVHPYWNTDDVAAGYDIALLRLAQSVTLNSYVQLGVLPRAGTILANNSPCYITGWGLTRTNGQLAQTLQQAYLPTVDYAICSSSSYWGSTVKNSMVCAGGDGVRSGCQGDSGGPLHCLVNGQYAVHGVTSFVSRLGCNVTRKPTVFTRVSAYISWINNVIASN

B2: PCSK9_2EC (peptide)
peptide: TVFTSWEEALDWVGICTASIPPICQ-OH
modifications: disulfide 16-24 (inferred)
notes: Contains an anti-elastase scaffold, with a disulfide bond between its two Cys
- Inhibitory rate (%) [1]: 73.1%
- Inhibitory rate (%) [2]: 100%

B3: EC12 (peptide)
peptide: LCTASIPPICQ
modifications: disulfide 2-10 (inferred)
- binding result [3]: binds

B4: EC23 (peptide)
peptide: ICTASIPPICQ
modifications: disulfide 2-10 (inferred)
- binding result [3]: binds

B5: EC18 (peptide)
peptide: LCTASIPPQCQ
modifications: disulfide 2-10 (inferred)
- binding result [3]: binds

B8: EC25 (peptide)
peptide: LCTASNPPICQ
modifications: disulfide 2-10 (inferred)
- binding result [3]: binds

B10: PCSK9_2CH (peptide)
peptide: TVFTSWEEALDWVGFCTYSIPPQCYG
modifications: disulfide 16-24 (inferred)
notes: Contains an anti-chymotrypsin scaffold, with a disulfide bond between its two Cys
- Inhibitory rate (%) [4]: 100%

B11: PCSK9_9CH (peptide)
peptide: TVFTSGFCTYSIPPQCYGWEEYLDWV
modifications: disulfide 8-16 (inferred)
notes: as for B10
- Inhibitory rate (%) [1]: 98.4%
- Inhibitory rate (%) [2]: 102%

B12: PCSK9_5CH (peptide)
peptide: WEEALDWVGFCTYSIPPQCYGTVFTS
modifications: disulfide 11-19 (inferred)
notes: as for B10
- Inhibitory rate (%) [1]: 99.4%

B13: PCSK9_6CH (peptide)
peptide: WEEYLDYVGFCTYSIPPQCYGTVFTS
modifications: disulfide 11-19 (inferred)
notes: as for B10
- Inhibitory rate (%) [1]: 75.3%
- Inhibitory rate (%) [2]: 93.7%

B14: PCSK9_5EC (peptide)
peptide: WEEALDWVGICTASIPPICQGTVFTS
modifications: disulfide 11-19 (inferred)
notes: as for B2
- Inhibitory rate (%) [1]: 85.2%
- Inhibitory rate (%) [2]: 95.3%

B15: PCSK9_6EC (peptide)
peptide: WEEYLDYVGICTASIPPICQGTVFTS
modifications: disulfide 11-19 (inferred)
notes: as for B2
- Inhibitory rate (%) [1]: 96.7%
- Inhibitory rate (%) [2]: 99.4%

B17: BT9 (peptide)
peptide: CGRATKSIPPICF
modifications: disulfide 1-12 (inferred)
notes: synthetic
- Residual trypsin activity (%) [5]: 68.1%
- Residual trypsin activity (%) [6]: 100%
- Residual trypsin activity (%) [7]: 94.3%
- Residual trypsin activity (%) [8]: -0.4%
- Residual trypsin activity (%) [9]: 68.1%
- Residual trypsin activity (%) [10]: 100%
- Residual trypsin activity (%) [11]: 94.3%
- Residual trypsin activity (%) [12]: -0.4%

B20: BT26 (peptide)
peptide: CGRAAKSIPPICF
modifications: disulfide 1-12 (inferred)
notes: synthetic
- Residual trypsin activity (%) [17]: 0.4%
- Residual trypsin activity (%) [13]: 100%
- Residual trypsin activity (%) [7]: 99.5%
- Residual trypsin activity (%) [8]: 94.5%
- Residual trypsin activity (%) [14]: 0.1%
- Residual trypsin activity (%) [18]: 100%
- Residual trypsin activity (%) [11]: 99.5%
- Residual trypsin activity (%) [12]: 94.5%
- Residual trypsin activity (%) [16]: 0.4%

B21: PCSK9_11 (peptide)
peptide: GTNEALDNNCGRATKSIPPICFVANDLK
modifications: disulfide 10-21 (inferred)
- Inhibitory rate (%) [4]: 3.6%

B22: PCSK9_14 (peptide)
peptide: GTNEALDNNCGRATKSIPPICFGTVFTS
modifications: disulfide 10-21 (inferred)
- Inhibitory rate (%) [4]: -8.7%

More lines, now with the values ahead:

- Inhibitory rate (%) [1]: 94.3%
- Inhibitory rate (%) [2]: 101%
B1: PCSK9_9EC (peptide)
peptide: TVFTSGICTASIPPICQWEEYLDWV
modifications: disulfide 8-16 (inferred)
notes: as for B2

- binding result [3]: binds
B6: EC22 (peptide)
peptide: VCTASIPPICQ
modifications: disulfide 2-10 (inferred)

- binding result [3]: binds
B7: EC29 (peptide)
peptide: YCTASIPPICQ
modifications: disulfide 2-10 (inferred)

- binding result [3]: binds
B9: EC1 (peptide)
peptide: LCTASIPPQCY
modifications: disulfide 2-10 (inferred)

- Inhibitory rate (%) [4]: 99.6%
B16: PCSK9_3EC (peptide)
peptide: ICTASIPPICQGTVFTSWEEALDWV
modifications: disulfide 2-10 (inferred)
notes: as for B2

- Residual trypsin activity (%) [5]: 87.4%
- Residual trypsin activity (%) [13]: 63%
- Residual trypsin activity (%) [8]: 0.5%
- Residual trypsin activity (%) [14]: 0%
- Residual trypsin activity (%) [15]: 104%
- Residual trypsin activity (%) [10]: 109%
- Residual trypsin activity (%) [11]: 106%
- Residual trypsin activity (%) [16]: 0.2%
B18: BT53 (peptide)
peptide: CGRYTKSIPPICF
modifications: disulfide 1-12 (inferred)
notes: synthetic

- Residual trypsin activity (%) [6]: 101%
- Residual trypsin activity (%) [17]: 1%
- Residual trypsin activity (%) [13]: 100%
- Residual trypsin activity (%) [7]: 99.6%
- Residual trypsin activity (%) [8]: 49.7%
- Residual trypsin activity (%) [14]: 0.2%
- Residual trypsin activity (%) [10]: 101%
- Residual trypsin activity (%) [18]: 100%
- Residual trypsin activity (%) [11]: 99.6%
- Residual trypsin activity (%) [12]: 49.7%
- Residual trypsin activity (%) [16]: 1%
B19: BT25 (peptide)
peptide: CGTATKSIPPICF
modifications: disulfide 1-12 (inferred)
notes: synthetic

- Inhibitory rate (%) [4]: 44.7%
B23: PCSK9_12 (peptide)
peptide: WEEALDWVCGRATKSIPPICFGYVANDLKI
modifications: disulfide 9-20 (inferred)

- Inhibitory rate (%) [4]: 99.2%
B24: PCSK9_3CH (peptide)
peptide: FCTYSIPPQCYGGTVFTSWEEALDWV
modifications: disulfide 2-10 (inferred)
notes: as for B10
